Test results: paper PMC314469, “Protein Interaction Networks by Proteome Peptide Scanning” (PLoS Biology, 2004)

What was measured:
[1] = biological target: T1, amphyphisin SH3 (AMPH_HUMAN), P49418; assay: SPOT array
T1 chain: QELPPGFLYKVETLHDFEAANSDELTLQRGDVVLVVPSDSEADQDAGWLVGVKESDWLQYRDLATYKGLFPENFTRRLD

[2] = biological target: endophilin SH3 (SH3G2_HUMAN), Q99962; assay: SPOT array

B1: Q14184 97-111 (peptide)
chain: PGPSPARPPAKPPE
normalised SPOT signal, Boehringer light units (BLU); mean over the file's lines of this peptide [1]: 19.1 | normalised SPOT signal, Boehringer light units (BLU); mean over the file's lines of this peptide [2]: 194

B2: Q9H3S7 1093-1107 (peptide)
chain: PGPVPPRPPAAEPP
normalised SPOT signal, Boehringer light units (BLU); mean over the file's lines of this peptide [1]: 50.3 | normalised SPOT signal, Boehringer light units (BLU); mean over the file's lines of this peptide [2]: 331

B3: P78365 80-93 (peptide)
chain: PGQGLRRPARPGPA
normalised SPOT signal, Boehringer light units (BLU); mean over the file's lines of this peptide [1]: 853 | normalised SPOT signal, Boehringer light units (BLU); mean over the file's lines of this peptide [2]: 1310

B4: Q9NQE0 211-224 (peptide)
chain: ARRPPPRPHRRAET
normalised SPOT signal, Boehringer light units (BLU); mean over the file's lines of this peptide [1]: 2030 | normalised SPOT signal, Boehringer light units (BLU); mean over the file's lines of this peptide [2]: 2500

B5: Q12984 75-88 (peptide)
chain: PGQGPQRPRRPAKD
normalised SPOT signal, Boehringer light units (BLU); mean over the file's lines of this peptide [1]: 4690 | normalised SPOT signal, Boehringer light units (BLU); mean over the file's lines of this peptide [2]: 5880

B6: Q9H6A9 285-298 (peptide)
chain: PGRAPRRPLLEGGG
normalised SPOT signal, Boehringer light units (BLU); mean over the file's lines of this peptide [1]: 44.4 | normalised SPOT signal, Boehringer light units (BLU); mean over the file's lines of this peptide [2]: 711

B7: Q9NQV6 314-328 (peptide)
chain: PGRRPGRPPKFIRL
normalised SPOT signal, Boehringer light units (BLU); mean over the file's lines of this peptide [1]: 504 | normalised SPOT signal, Boehringer light units (BLU); mean over the file's lines of this peptide [2]: 15700

B8: O15427 206-219 (peptide)
chain: PGSGPPRPSRRLLD
normalised SPOT signal, Boehringer light units (BLU); mean over the file's lines of this peptide [1]: 748 | normalised SPOT signal, Boehringer light units (BLU); mean over the file's lines of this peptide [2]: 2310

B9: Q8TEP0 205-219 (peptide)
chain: PGSLPSKPPPGPVP
normalised SPOT signal, Boehringer light units (BLU); mean over the file's lines of this peptide [1]: 48.3 | normalised SPOT signal, Boehringer light units (BLU); mean over the file's lines of this peptide [2]: 22.8

B10: Q9GZW5 233-246 (peptide)
chain: PGTGPWRPGRQRGA
normalised SPOT signal, Boehringer light units (BLU); mean over the file's lines of this peptide [1]: 656 | normalised SPOT signal, Boehringer light units (BLU); mean over the file's lines of this peptide [2]: 156

B11: O75833 33-46 (peptide)
chain: PGTPPRRPASPSAL
normalised SPOT signal, Boehringer light units (BLU); mean over the file's lines of this peptide [1]: 223 | normalised SPOT signal, Boehringer light units (BLU); mean over the file's lines of this peptide [2]: 3750

B12: Q96D64 48-61 (peptide)
chain: PGTSPRRPSVVPSR
normalised SPOT signal, Boehringer light units (BLU); mean over the file's lines of this peptide [1]: 35.3 | normalised SPOT signal, Boehringer light units (BLU); mean over the file's lines of this peptide [2]: 587

B13: Q9UN16 222-235 (peptide)
chain: PGVEPKRPSRPINL
normalised SPOT signal, Boehringer light units (BLU); mean over the file's lines of this peptide [1]: 8660 | normalised SPOT signal, Boehringer light units (BLU); mean over the file's lines of this peptide [2]: 227

B14: Q9HCH0 869-883 (peptide)
chain: PGVPPARPPPLTKV
normalised SPOT signal, Boehringer light units (BLU); mean over the file's lines of this peptide [1]: 807 | normalised SPOT signal, Boehringer light units (BLU); mean over the file's lines of this peptide [2]: 10000

B15: O43188 617-630 (peptide)
chain: ARSYLRRPAVVYIG
normalised SPOT signal, Boehringer light units (BLU); mean over the file's lines of this peptide [1]: 35.3 | normalised SPOT signal, Boehringer light units (BLU); mean over the file's lines of this peptide [2]: 60.1

B16: Q9Y5X7 158-171 (peptide)
chain: PHADPGRPERLVFK
normalised SPOT signal, Boehringer light units (BLU); mean over the file's lines of this peptide [1]: 169 | normalised SPOT signal, Boehringer light units (BLU); mean over the file's lines of this peptide [2]: 8.4

B17: Q9H6E1 62-75 (peptide)
chain: PHHELRRPVLQRQT
normalised SPOT signal, Boehringer light units (BLU); mean over the file's lines of this peptide [1]: 30.1 | normalised SPOT signal, Boehringer light units (BLU); mean over the file's lines of this peptide [2]: 4.1

B18: Q96FN8 185-198 (peptide)
chain: PHKRPRRPHQIADL
normalised SPOT signal, Boehringer light units (BLU); mean over the file's lines of this peptide [1]: 75.3 | normalised SPOT signal, Boehringer light units (BLU); mean over the file's lines of this peptide [2]: 58.2

B19: Q9NVV2 32-45 (peptide)
chain: PHSAPLRPPRELHA
normalised SPOT signal, Boehringer light units (BLU); mean over the file's lines of this peptide [1]: 9310 | normalised SPOT signal, Boehringer light units (BLU); mean over the file's lines of this peptide [2]: 13000

B20: Q9Y2Z7 47-60 (peptide)
chain: PISVLRRPGANHEG
normalised SPOT signal, Boehringer light units (BLU); mean over the file's lines of this peptide [1]: 46.1 | normalised SPOT signal, Boehringer light units (BLU); mean over the file's lines of this peptide [2]: 90.8

B21: Q9H7J0 315-328 (peptide)
chain: PIQNIKRPYPGEVS
normalised SPOT signal, Boehringer light units (BLU); mean over the file's lines of this peptide [1]: 48.7 | normalised SPOT signal, Boehringer light units (BLU); mean over the file's lines of this peptide [2]: 110

B22: Q99462 62-75 (peptide)
chain: PKDYPLRPPKMKFI
normalised SPOT signal, Boehringer light units (BLU); mean over the file's lines of this peptide [1]: 81.5 | normalised SPOT signal, Boehringer light units (BLU); mean over the file's lines of this peptide [2]: 1880

B23: O75698 245-258 (peptide)
chain: PKERLRRPETSGIS
normalised SPOT signal, Boehringer light units (BLU); mean over the file's lines of this peptide [1]: 38.7 | normalised SPOT signal, Boehringer light units (BLU); mean over the file's lines of this peptide [2]: 32.6

B24: AAM49716 571-585 (peptide)
chain: PKISPQKPPRKDME
normalised SPOT signal, Boehringer light units (BLU); mean over the file's lines of this peptide [1]: 2910 | normalised SPOT signal, Boehringer light units (BLU); mean over the file's lines of this peptide [2]: 487

B25: Q9ULW0 418-432 (peptide)
chain: PKKPPVKPPTEPIG
normalised SPOT signal, Boehringer light units (BLU); mean over the file's lines of this peptide [1]: 37.6 | normalised SPOT signal, Boehringer light units (BLU); mean over the file's lines of this peptide [2]: 64.2

B26: O60331 5-18 (peptide)
chain: ARVPLGRPRRRPRA
normalised SPOT signal, Boehringer light units (BLU); mean over the file's lines of this peptide [1]: 421 | normalised SPOT signal, Boehringer light units (BLU); mean over the file's lines of this peptide [2]: 200

B27: Q14669 1006-1019 (peptide)
chain: PKRGPRRPKYSPPR
normalised SPOT signal, Boehringer light units (BLU); mean over the file's lines of this peptide [1]: 12.1 | normalised SPOT signal, Boehringer light units (BLU); mean over the file's lines of this peptide [2]: 83.3

B28: Q9HA07 306-319 (peptide)
chain: PKSVLKRPVTSEEL
normalised SPOT signal, Boehringer light units (BLU); mean over the file's lines of this peptide [1]: 37.6 | normalised SPOT signal, Boehringer light units (BLU); mean over the file's lines of this peptide [2]: 48.9

B29: Q9HA84 52-65 (peptide)
chain: PKTPPRRPVPVADS
normalised SPOT signal, Boehringer light units (BLU); mean over the file's lines of this peptide [1]: 314 | normalised SPOT signal, Boehringer light units (BLU); mean over the file's lines of this peptide [2]: 61.3

B30: Q92932 113-126 (peptide)
chain: PKTYLRRPEASSPA
normalised SPOT signal, Boehringer light units (BLU); mean over the file's lines of this peptide [1]: 21.6 | normalised SPOT signal, Boehringer light units (BLU); mean over the file's lines of this peptide [2]: 60.7

B31: Q9P2D6 185-198 (peptide)
chain: PLISFPRPVKTTWL
normalised SPOT signal, Boehringer light units (BLU); mean over the file's lines of this peptide [1]: 201 | normalised SPOT signal, Boehringer light units (BLU); mean over the file's lines of this peptide [2]: 172

B32: P52849 207-220 (peptide)
chain: PLLHLTRPSRLEPG
normalised SPOT signal, Boehringer light units (BLU); mean over the file's lines of this peptide [1]: 1780 | normalised SPOT signal, Boehringer light units (BLU); mean over the file's lines of this peptide [2]: 1220

B33: Q9H6X0 119-132 (peptide)
chain: PLLPPKRPLSSSHE
normalised SPOT signal, Boehringer light units (BLU); mean over the file's lines of this peptide [1]: 680 | normalised SPOT signal, Boehringer light units (BLU); mean over the file's lines of this peptide [2]: 10400

B34: O60543 29-42 (peptide)
chain: PLMHPARPFRVSNH
normalised SPOT signal, Boehringer light units (BLU); mean over the file's lines of this peptide [1]: 8020 | normalised SPOT signal, Boehringer light units (BLU); mean over the file's lines of this peptide [2]: 15800

B35: Q9H3X8 431-444 (peptide)
chain: PLPAPRRPKVNSIL
normalised SPOT signal, Boehringer light units (BLU); mean over the file's lines of this peptide [1]: 4680 | normalised SPOT signal, Boehringer light units (BLU); mean over the file's lines of this peptide [2]: 744

B36: P56730 61-74 (peptide)
chain: PLPRFPRPPRALPA
normalised SPOT signal, Boehringer light units (BLU); mean over the file's lines of this peptide [1]: 1910 | normalised SPOT signal, Boehringer light units (BLU); mean over the file's lines of this peptide [2]: 3490

B37: Q96LW7 145-159 (peptide)
chain: ASAPPQRPPSGPEG
normalised SPOT signal, Boehringer light units (BLU); mean over the file's lines of this peptide [1]: 21.2 | normalised SPOT signal, Boehringer light units (BLU); mean over the file's lines of this peptide [2]: 435

B38: Q14123 658-671 (peptide)
chain: PLRHFKRPAYASSS
normalised SPOT signal, Boehringer light units (BLU); mean over the file's lines of this peptide [1]: 28.7 | normalised SPOT signal, Boehringer light units (BLU); mean over the file's lines of this peptide [2]: 9.5

B39: O95822 14-28 (peptide)
chain: PLRLPPRPPGPRLA
normalised SPOT signal, Boehringer light units (BLU); mean over the file's lines of this peptide [1]: 4940 | normalised SPOT signal, Boehringer light units (BLU); mean over the file's lines of this peptide [2]: 18500

B40: P11161 316-329 (peptide)
chain: PLRPILRPRKYPNR
normalised SPOT signal, Boehringer light units (BLU); mean over the file's lines of this peptide [1]: 2100 | normalised SPOT signal, Boehringer light units (BLU); mean over the file's lines of this peptide [2]: 4850

B41: P53675 58-71 (peptide)
chain: PMAPIRRPISAESA
normalised SPOT signal, Boehringer light units (BLU); mean over the file's lines of this peptide [1]: 1010 | normalised SPOT signal, Boehringer light units (BLU); mean over the file's lines of this peptide [2]: 464

B42: O00253 27-40 (peptide)
chain: PMEGIRRPDQALLP
normalised SPOT signal, Boehringer light units (BLU); mean over the file's lines of this peptide [1]: 36 | normalised SPOT signal, Boehringer light units (BLU); mean over the file's lines of this peptide [2]: 66
